Measured values as given in patent US20250270332A1 (ANTLERA THERAPEUTICS, published 2025).

T1: FZD4 recombinant extracellular domain, Fc fusion (FZD-Fc) (UniProt Q9ULV1 37-180)
T1 construct: extracellular domain; also called FZD4 ECD; not shown: Fc part of the FZD-Fc protein
T1 sequence (looked up): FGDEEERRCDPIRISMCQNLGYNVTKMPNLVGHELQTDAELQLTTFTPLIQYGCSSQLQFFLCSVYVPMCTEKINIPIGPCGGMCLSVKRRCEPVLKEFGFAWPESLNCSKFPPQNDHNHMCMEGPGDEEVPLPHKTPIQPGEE

B1: FZD4 Agonist ANT16 (bispecific antibody, human IgG1, kappa, N297G)
heavy 1: EVQLVESGGGLVQPGGSLRLSCAASGFDFTAYAMHWVRQAPGKGLEWVASIYPSGGYTAYADSVKGRFTISADTSKNTAYLQMNSLRAEDTAVYYCARRSYYFALDYWGQGTLVTVSSGGGGSDIQMTQSPSSLSASVGDRVTITCRASQSVSSAVAWYQQKPGKAPKLLIYSASSLYSGVPSRFSGSRSGTDFTLTISSLQPEDFATYYCQQYWAYYSPITFGQGTKVEIKGGGGSGGGGSEPKTSDKTHTCPPCPAPELLGGPSVFLFPPKPKDTLMISRTPEVTCVVVAVSHEDPEVKFNWYVDGVEVHNAKTKPREEQYGSTYRVVSVLTVLHQDWLNGKEYKCKVSNKALPAPIEKTISKAKGQPREPMVFDLPPSREEMTKNQVSLWCMVKGFYPSDIAVEWESNGQPENNYKTTPPVLDSDGSFFLYSKLTVDKSRWQQGNVFSCSVMHEALHNHYTQKSLSLSPGKGGGSGGGSGGGSGGGSGSTGEVQLVESGGGLVQPGGSLRLSCAASGFTLSSYSMHWVRQAPGKGLEWVAYISSYYGYTYYADSVKGRFTISADTSKNTAYLQMNSLRAEDTAVYYCARPAPGHWGFDYWGQGTLVTVSSASTKGPSVFPLAPSSKSTSGGTAALGCLVKDYFPEPVTVSWNSGALTSGVHTFPAVLQSSGLYSLSSVVTVPSSSLGTQTYICNVNHKPSNTKVDKKVEPKSCDKTHT
heavy 2: EVQLVESGGGLVQPGGSLRLSCAASGFDFSSSSIHWVRQAPGKGLEWVASISSSYGYTYYADSVKGRFTISADTSKNTAYLQMNSLRAEDTAVYYCARSWAMDYWGQGTLVTVSSGGGGSDIQMTQSPSSLSASVGDRVTITCRASQSVSSAVAWYQQKPGKAPKLLIYSASDLYSGVPSRFSGSRSGTDFTLTISSLQPEDFATYYCQQYAGAGLITFGQGTKVEIKGGGGSGGGGSEPKSSDKTHTCPPCPAPELLGGPSVFLFPPKPKDTLMISRTPEVTCVVVAVSHEDPEVKFNWYVDGVEVHNAKTKPREEQYGSTYRVVSVLTVLHQDWLNGKEYKCKVSNKALPAPIEKTISKAKGQPREPQVYTLPPIRELMTSNQVSLSCAVKGFYPSDIAVEWESNGQPENNYKTTPPVLDSDGSFFLVSKLTVDKSRWQQGNVFSCSVMHEALHNHYTQKSLSLSPGKGGGSGGGSGGGSGGGSGSTGEVQLVESGGGLVQPGGSLRLSCAASGFTLSSYSMHWVRQAPGKGLEWVAYISSYYGYTYYADSVKGRFTISADTSKNTAYLQMNSLRAEDTAVYYCARPAPGHWGFDYWGQGTLVTVSSASTKGPSVFPLAPSSKSTSGGTAALGCLVKDYFPEPVTVSWNSGALTSGVHTFPAVLQSSGLYSLSSVVTVPSSSLGTQTYICNVNHKPSNTKVDKKVEPKSCDKTHT
light: DIQMTQSPSSLSASVGDRVTITCRASQSVSSAVAWYQQKPGKAPKLLIYSASSLYSGVPSRFSGSRSGTDFTLTISSLQPEDFATYYCQQWYYAPITFGQGTKVEIKRTVAAPSVFIFPPSDEQLKSGTASVVCLLNNFYPREAKVQWKVDNALQSGNSQESVTEQDSKDSTYSLSSTLTLSKADYEKHKVYACEVTHQGLSSPVTKSFNRGEC
notes: Diabody-Fc-Fab format: bispecific LRP5 diabody at the N-terminus, two FZD4 Fabs at the C-terminus
B2: FZD4 Agonist ANT18 (bispecific antibody)
heavy 1: EVQLVESGGGMVQPGGSLRLSCAASGFNFSSSSIHWVRQAPGKGLEWVASISSSYGYTYYADSVKGRFTISADTSKNTAYLQMNSLRAEDTAVYYCARGGSGVSHYGSVYYSWWALDYWGQGTLVTVSSGGGGSDIQMTQSPSSLSASVGDRVTITCRASQSVSSAVAWYQQKPGKAPKLLIYSASSLYSGVPSRFSGSRSGTDFTLTISSLQPEDFATYYCQQASYAPITFGQGTKVEIKGGGGSGGGGSEPKTSDKTHTCPPCPAPELLGGPSVFLFPPKPKDTLMISRTPEVTCVVVAVSHEDPEVKFNWYVDGVEVHNAKTKPREEQYGSTYRVVSVLTVLHQDWLNGKEYKCKVSNKALPAPIEKTISKAKGQPREPMVFDLPPSREEMTKNQVSLWCMVKGFYPSDIAVEWESNGQPENNYKTTPPVLDSDGSFFLYSKLTVDKSRWQQGNVFSCSVMHEALHNHYTQKSLSLSPGKGGGSGGGSGGGSGGGSGSTGEVQLVESGGGLVQPGGSLRLSCAASGFTLSSYSMHWVRQAPGKGLEWVAYISSYYGYTYYADSVKGRFTISADTSKNTAYLQMNSLRAEDTAVYYCARPAPGHWGFDYWGQGTLVTVSSASTKGPSVFPLAPSSKSTSGGTAALGCLVKDYFPEPVTVSWNSGALTSGVHTFPAVLQSSGLYSLSSVVTVPSSSLGTQTYICNVNHKPSNTKVDKKVEPKSCDKTHT
heavy 2: EVQLVESGGGLVQPGGSLRLSCAASGFNLSYYYMHWVRQAPGKGLEWVASIYSSYGYTYYADSVKGRFTISADTSKNTAYLQMNSLRAEDTAVYYCARWSHVSGHYSGMDYWGQGTLVTVSSGGGGSDIQMTQSPSSLSASVGDRVTITCRASQSVSSAVAWYQQKPGKAPKLLIYSASSLYSGVPSRFSGSRSGTDFTLTISSLQPEDFATYYCQQSSYSLITFGQGTKVEIKGGGGSGGGGSEPKSSDKTHTCPPCPAPELLGGPSVFLFPPKPKDTLMISRTPEVTCVVVAVSHEDPEVKFNWYVDGVEVHNAKTKPREEQYGSTYRVVSVLTVLHQDWLNGKEYKCKVSNKALPAPIEKTISKAKGQPREPQVYTLPPIRELMTSNQVSLSCAVKGFYPSDIAVEWESNGQPENNYKTTPPVLDSDGSFFLVSKLTVDKSRWQQGNVFSCSVMHEALHNHYTQKSLSLSPGKGGGSGGGSGGGSGGGSGSTGEVQLVESGGGLVQPGGSLRLSCAASGFTLSSYSMHWVRQAPGKGLEWVAYISSYYGYTYYADSVKGRFTISADTSKNTAYLQMNSLRAEDTAVYYCARPAPGHWGFDYWGQGTLVTVSSASTKGPSVFPLAPSSKSTSGGTAALGCLVKDYFPEPVTVSWNSGALTSGVHTFPAVLQSSGLYSLSSVVTVPSSSLGTQTYICNVNHKPSNTKVDKKVEPKSCDKTHT
light: B1 light
notes: Diabody-Fc-Fab format
B3: diabody-Fc-diabody FZD4 CM0199 (bispecific antibody)
chain 1: EFEVQLVESGGGLVQPGGSLRLSCAASGFNSSFYFMHWVRQAPGKGLEWVATVYPYLDYTYYADSVKGRFTISADTSKNTAYLQMNSLRAEDTAVYYCARAFPGSYHPMDYWGQGTLVTVSSGGGGSDIQMTQSPSSLSASVGDRVTITCRASQSVSSAVAWYQQKPGKAPKLLIYSASSLYSGVPSRFSGSRSGTDFTLTISSLQPEDFATYYCQQSSYSLITFGQGTKVEIKLEDKTHTKVEPKTSDKTHTCPPCPAPELLGGPSVFLFPPKPKDTLMISRTPEVTCVVVDVSHEDPEVKFNWYVDGVEVHNAKTKPREEQYNSTYRVVSVLTVLHQDWLNGKEYKCKVSNKALPAPIEKTISKAKGQPREPMVFDLPPSREEMTKNQVSLWCMVKGFYPSDIAVEWESNGQPENNYKTTPPVLDSDGSFFLYSKLTVDKSRWQQGNVFSCSVMHEALHNHYTQKSLSLSPGKSGSETPGTSESATPESGGGEVQLVESGGGLVQPGGSLRLSCAASGFNFSSSSIHWVRQAPGKGLEWVASISSSYGYTYYADSVKGRFTISADTSKNTAYLQMNSLRAEDTAVYYCARGGSGVSHYGSVYYSWWALDYWGQGTLVTVSSGGGGSDIQMTQSPSSLSASVGDRVTITCRASQSVSSAVAWYQQKPGKAPKLLIYSASSLYSGVPSRFSGSRSGTDFTLTISSLQPEDFATYYCQQASYAPITFGQGTKVEIK
chain 2: EFEVQLVESGGGLVQPGGSLRLSCAASGFNSSFYFMHWVRQAPGKGLEWVATVYPYLDYTYYADSVKGRFTISADTSKNTAYLQMNSLRAEDTAVYYCARAFPGSYHPMDYWGQGTLVTVSSGGGGSDIQMTQSPSSLSASVGDRVTITCRASQSVSSAVAWYQQKPGKAPKLLIYSASSLYSGVPSRFSGSRSGTDFTLTISSLQPEDFATYYCQQSSYSLITFGQGTKVEIKLEDKTHTKVEPKSSDKTHNCPPCPAPELLGGPSVFLFPPKPKDTLMISRTPEVTCVVVDVSHEDPEVKFNWYVDGVEVHNAKTKPREEQYNSTYRVVSVLTVLHQDWLNGKEYKCKVSNKALPAPIEKTISKAKGQPREPQVYTLPPIRELMTSNQVSLSCAVKGFYPSDIAVEWESNGQPENNYKTTPPVLDSDGSFFLVSKLTVDKSRWQQGNVFSCSVMHEALHNHYTQKSLSLSPGKSGSETPGTSESATPESGGGEVQLVESGGGLVQPGGSLRLSCAASGFNLSYYYMHWVRQAPGKGLEWVASIYSSYGYTYYADSVKGRFTISADTSKNTAYLQMNSLRAEDTAVYYCARWSHVSGHYSGMDYWGQGTLVTVSSGGGGSDIQMTQSPSSLSASVGDRVTITCRASQSVSSAVAWYQQKPGKAPKLLIYSASSLYSGVPSRFSGSRSGTDFTLTISSLQPEDFATYYCQQSSYSLITFGQGTKVEIK
notes: Diabody-Fc-diabody format FZD agonist that recognizes FZD4 and LRP5; also called F4L5.13

molecular target: T1, FZD4 recombinant extracellular domain, …; assay: BLI (Octet), FZD-Fc captured on AHQ sensors, agonist in solution; apparent affinity

Binder	Kd
B1	600 pM
B2	2600 pM
B3	700 pM
